Usually IC50 stands for the midpoint of a concentration-inhibition curve. A higher IC50 goes with a need for much substance.

45 molecules from US20040018971A1 (published 2004) can be followed below.

In test [1] the target is T1, HLA-A*0301 (purified HLA class I molecule) (human).
T1 construct: also called HLA-A3
Nature of the test: competition with 125I-labelled probe peptide for purified HLA-A*0301, gel filtration. For orientation: In gel filtration, larger molecules generally elute earlier.

Test [2] concerns the target HLA-A*0301 (purified HLA class I molecule) (human). Nature of the test: competition with 125I-labelled probe peptide on purified HLA-A*0301, gel filtration.
The target in test [3] is HLA-B*0702 (human). Nature of the test: competition with 125I probe peptide, purified HLA.
Test [4] deals with HLA-B*5101 (human). Nature of the test: competition with 125I probe peptide, purified HLA.
The target of another test is HLA-B*5301 (human). Nature of the test: competition with 125I probe peptide, purified HLA.
The target of test [5] is HLA-B*5401 (human). Nature of the test: competition with 125I probe peptide, purified HLA.
In test [6] the target is HLA-B*3501 (human). Nature of the test: competition with 125I probe peptide, purified HLA.
Test [7] addresses HLA-B*0702 (human). Nature of the test: competition vs 125I-labelled probe peptide, purified HLA, gel filtration.
The target in test [8] is HLA-B*3501 (human). Described as above.
The target of test [9] is HLA-B*5101 (human). The test is described as above.
The target of test [10] is HLA-B*5401 (human). The description is as above.

For the molecule CLLDHVRENR (also called Her2/neu.805 10-mer) [HER2/neu peptide, position 805, 10 amino acids (CLLDHVRENR)], the relative binding ratio in test [1] is 0.0003 ratio (IC50 of standard peptide / IC50 of test peptide).
Take TIDVYMIMVK (Synthetic peptide) [HER2/NEU A03 motif peptide, position 948, 10 amino acids]: the “relative binding ratio (IC50 of standard peptide / IC50 of test peptide)” value in test [2] worked out at 0.013 ratio.
As to CAAGCTGPK (also called Her2/neu.240 9-mer) [HER2/neu peptide, position 240, 9 amino acids (CAAGCTGPK)], the relative binding ratio in test [1] is 0.0021 ratio (IC50 of standard peptide / IC50 of test peptide).
In the case of RILKETELRK (Synthetic peptide) [HER2/NEU A03 motif peptide, position 713, 10 amino acids], in test [2], the “relative binding ratio (IC50 of standard peptide / IC50 of test peptide)” value came out at 0.057 ratio.

B1: HER2/NEU A03 motif peptide, position 402, 10 amino acids (peptide)
peptide: TLEEITGYLY
notes: Synthetic peptide; also called Her2/neu.402
For the molecule B1, in test [2], the “relative binding ratio (IC50 of standard peptide / IC50 of test peptide)” value came to 0.0001 ratio.
On to CVNCSQFLR (also called Her2/neu.528 9-mer) [HER2/neu peptide, position 528, 9 amino acids (CVNCSQFLR)], for which the relative binding ratio in [1] is 0.0015 ratio (IC50 of standard peptide / IC50 of test peptide).
On to RLLDIDETEY (Synthetic peptide) [HER2/NEU A03 motif peptide, position 868, 10 amino acids], for which the “relative binding ratio (IC50 of standard peptide / IC50 of test peptide)” value in [2] came out at 0.0017 ratio.
Consider CTGTDMKLR (also called Her2/neu.26 9-mer) [HER2/neu peptide, position 26, 9 amino acids (CTGTDMKLR)], for which, in test [1], the relative binding ratio was 0.0002 ratio (IC50 of standard peptide / IC50 of test peptide).
Take FPMCKGSRCI (analog peptide) [Her2/neu.196.F1]: the IC50 was found to be 183 nM with HLA-B*0702 [3], 500 nM with HLA-B*5101 [4], 6640 nM in the test with HLA-B*5301 and 303 nM in the test with HLA-B*5401 [5].
Turning to RGTQLFEDNY (Synthetic peptide) [HER2/NEU A03 motif peptide, position 103, 10 amino acids], the “relative binding ratio (IC50 of standard peptide / IC50 of test peptide)” value in [2] worked out at 0.0003 ratio.
Same read-out and setting: the figure for RLVHRDLAAR (Synthetic peptide) [HER2/NEU A03 motif peptide, position 840, 10 amino acids] is 0.18 ratio.
In the case of MPNPEGRYTI (analog peptide) [Her2/neu.282.I10], the IC50 amounted to 34 nM with HLA-B*0702 [3]; 111 nM with HLA-B*3501 [6]; 13 nM with HLA-B*5101 [4]; 9.3 nM with HLA-B*5301; 46 nM with HLA-B*5401 [5].
FPNPEGRYTI (analog peptide) [Her2/neu.282.F1]: the IC50 is 324 nM in the test with HLA-B*0702 [3]; 24 nM with HLA-B*3501 [6]; 9.3 nM in the test with HLA-B*5101 [4]; 6.6 nM with HLA-B*5301; 3.2 nM with HLA-B*5401 [5].
In the case of FPDLSYMPI (analog peptide) [Her2/neu.605.F1], the 50% inhibitory concentration (IC50) was 22 nM with HLA-B*0702 [3]; 167 nM in the test with HLA-B*3501 [6]; 10 nM with HLA-B*5101 [4]; 72 nM in the test with HLA-B*5301; 31 nM with HLA-B*5401 [5].
SSEDCQSLTR (Synthetic peptide) [HER2/NEU A03 motif peptide, position 208, 10 amino acids]: the “relative binding ratio (IC50 of standard peptide / IC50 of test peptide)” value in [2] is -0.0002 ratio.
CVTACPYNY (also called Her2/neu.295 9-mer) [HER2/neu peptide, position 295, 9 amino acids (CVTACPYNY)]: in test [1], the relative binding ratio is 0.0002 ratio (IC50 of standard peptide / IC50 of test peptide).
FPCARVCYGL (analog peptide) [Her2/neu.336.F1]: the IC50 with HLA-B*0702 [3] came out at 190 nM; with HLA-B*3501 [6], 450 nM; in the test with HLA-B*5101 [4], 1000 nM; with HLA-B*5301, 1690 nM; with HLA-B*5401 [5], 36 nM.
In the same order, the values of FPTNASLSF (analog peptide) [Her2/neu.65.F1 (9-mer)] are 1.1 nM, 7.9 nM, 85 nM, 6.2 nM and 556 nM.
Take FPTNASLSI (analog peptide) [Her2/neu.65.F1I9]: the IC50 in the test with HLA-B*0702 [3] is 4.6 nM; with HLA-B*3501 [6], 300 nM; with HLA-B*5101 [4], 8.7 nM; with HLA-B*5301, 14 nM; in the test with HLA-B*5401 [5], 2.8 nM.
CSKPCARVCY (also called Her2/neu.334 10-mer) [HER2/neu peptide, position 334, 10 amino acids (CSKPCARVCY)]: the relative binding ratio in test [1] was 0.0003 ratio (IC50 of standard peptide / IC50 of test peptide).
Consider ASPLDSTFY [HER2/neu peptide, position 997, 9 amino acids (ASPLDSTFY)], for which the relative binding ratio in test [1] was 0.0002 ratio (IC50 of standard peptide / IC50 of test peptide).
Consider RMARDPQRF (Synthetic peptide) [HER2/NEU A03 motif peptide, position 978, 9 amino acids], for which, in test [2], the “relative binding ratio (IC50 of standard peptide / IC50 of test peptide)” value is 0.0001 ratio.
For the molecule CPLHNQEVTI (analog peptide) [Her2/neu.315.I10], the IC50 stood at 458 nM with HLA-B*0702 [3], 42 nM in the test with HLA-B*5101 [4], 274 nM with HLA-B*5301 and 556 nM in the test with HLA-B*5401 [5].
For FPTNASLSFI (analog peptide) [Her2/neu.65.F1I10], the IC50 in the test with HLA-B*0702 [3] came to 120 nM; in the test with HLA-B*3501 [6], 424 nM; in the test with HLA-B*5101 [4], 23 nM; with HLA-B*5301 it was 85 nM; with HLA-B*5401 [5] it was 53 nM.
As for ASCVTACPY [HER2/neu peptide, position 293, 9 amino acids (ASCVTACPY)], the relative binding ratio in test [1] is 0.0008 ratio (IC50 of standard peptide / IC50 of test peptide).
For SMPNPEGRY (Synthetic peptide) [HER2/NEU A03 motif peptide, position 281, 9 amino acids], the “relative binding ratio (IC50 of standard peptide / IC50 of test peptide)” value in test [2] came out at 0.0002 ratio.
On to FPSGVKPDI (analog peptide) [Her2/neu.600.F1I9], for which the IC50 with HLA-B*0702 [3] was 6.3 nM; with HLA-B*3501 [6], 9000 nM; with HLA-B*5101 [4], 204 nM; in the test with HLA-B*5301 it was 930 nM; with HLA-B*5401 [5], 44 nM.

B2: HER2/NEU A03 motif peptide, position 166, 10 amino acids (peptide)
peptide: TILWKDIFHK
notes: Synthetic peptide; also called Her2/neu.166
Take B2: the “relative binding ratio (IC50 of standard peptide / IC50 of test peptide)” value in test [2] came out at 0.043 ratio.
Regarding FPLNNTTPI (analog peptide) [Her2/neu.121.F1I9], the IC50 turned out to be 1.6 nM in the test with HLA-B*0702 [3]; 200 nM in the test with HLA-B*3501 [6]; 13 nM in the test with HLA-B*5101 [4]; 52 nM in the test with HLA-B*5301; 1.6 nM in the test with HLA-B*5401 [5].
As to FPLNNTTPV (analog peptide) [Her2/neu.121.F1], the IC50 with HLA-B*0702 [3] is 0.2 nM; with HLA-B*3501 [6], 40 nM; with HLA-B*5101 [4] it was 7.1 nM; in the test with HLA-B*5301 it was 1070 nM; in the test with HLA-B*5401 [5] it was 1.1 nM.
As to CAGGCARCK (also called Her2/neu.220 9-mer) [HER2/neu peptide, position 220, 9 amino acids (CAGGCARCK)], the relative binding ratio in [1] was -0.0002 ratio (IC50 of standard peptide / IC50 of test peptide).
Same read-out and setting: the value for ALTLIDTNR (also called Her2/neu.180 9-mer) [HER2/neu peptide, position 180, 9 amino acids (ALTLIDTNR)] was 0.0004 ratio (IC50 of standard peptide / IC50 of test peptide).
For the molecule SVFQNLQVIR (Synthetic peptide) [HER2/NEU A03 motif peptide, position 423, 10 amino acids], in test [2], the “relative binding ratio (IC50 of standard peptide / IC50 of test peptide)” value amounted to 0.017 ratio.
For ALESILRRR (also called Her2/neu.890 9-mer) [HER2/neu peptide, position 890, 9 amino acids (ALESILRRR)], the relative binding ratio in test [1] is 0.0013 ratio (IC50 of standard peptide / IC50 of test peptide).
On the same count and under the same terms, the value for AFSPAFDNLY (also called Her2/neu.1212 10-mer) [HER2/neu peptide, position 1212, 10 amino acids (AFSPAFDNLY)] was 0.0003 ratio (IC50 of standard peptide / IC50 of test peptide).
With TLIDTNRSR (Synthetic peptide) [HER2/NEU A03 motif peptide, position 182, 9 amino acids], the “relative binding ratio (IC50 of standard peptide / IC50 of test peptide)” value in test [2] came to 0.0004 ratio.
Consider RVLQGLPREY (Synthetic peptide) [HER2/NEU A03 motif peptide, position 545, 10 amino acids], for which the “relative binding ratio (IC50 of standard peptide / IC50 of test peptide)” value in test [2] worked out at 0.035 ratio.

B3: Her2/neu.1155.F1 (peptide)
peptide: FPLPAARPA
notes: 9-mer analog of the HER2/neu peptide starting at position 1155
With B3, the IC50 came to 34 nM with HLA-B*0702 [7], 277 nM with HLA-B*3501 [8], 1900 nM with HLA-B*5101 [9] and 1.5 nM with HLA-B*5401 [10].

B4: Her2/neu.966.F1I11 (peptide)
peptide: FPRFRELVSEI
notes: 11-mer analog of the HER2/neu peptide starting at position 966
B4: the half-maximal inhibitory concentration (IC50) came to 229 nM in the test with HLA-B*0702 [7], 240 nM in the test with HLA-B*3501 [8], 167 nM in the test with HLA-B*5101 [9] and 28 nM in the test with HLA-B*5401 [10].
CSPMCKGSR (also called Her2/neu.195 9-mer) [HER2/neu peptide, position 195, 9 amino acids (CSPMCKGSR)]: the relative binding ratio in [1] was -0.0008 ratio (IC50 of standard peptide / IC50 of test peptide).
On the same count and under the same terms, the figure for AMPNQAQMR (also called Her2/neu.705 9-mer) [HER2/neu peptide, position 705, 9 amino acids (AMPNQAQMR)] is 0.0004 ratio (IC50 of standard peptide / IC50 of test peptide); for CVARCPSGVK (also called Her2/neu.596 10-mer) [HER2/neu peptide, position 596, 10 amino acids (CVARCPSGVK)] it is 0.022 ratio (IC50 of standard peptide / IC50 of test peptide).
As to FPHQALLHTA (analog peptide) [Her2/neu.488.F1], the IC50 with HLA-B*0702 [3] is 393 nM; with HLA-B*3501 [6] it was 379 nM; with HLA-B*5101 [4], 4230 nM; in the test with HLA-B*5401 [5], 1.3 nM.
In the case of FPHQALLHTI (analog peptide) [Her2/neu.488.F1I10], the IC50 with HLA-B*0702 [3] was determined as 86 nM; with HLA-B*3501 [6], 655 nM; with HLA-B*5101 [4], 19 nM; in the test with HLA-B*5301, 42 nM; in the test with HLA-B*5401 [5], 4 nM.
Regarding RILKETELR (Synthetic peptide) [HER2/NEU A03 motif peptide, position 713, 9 amino acids], the “relative binding ratio (IC50 of standard peptide / IC50 of test peptide)” value in [2] worked out at 0.0007 ratio.
